Experimental data: article PMC11790868
Where “and” joins values, the source holds several entries; their conditions need not be identical. Identical values can stand only once.

Legend:
H3K36MTU nucleosome = H3K36MTU nucleosome (UniProt P0C0S8); test: native gel or EMSA; nucleosomes 100 nM, NAD+ 0 or 150 uM, SIRT7 0-1.6 uM; 10 mM Tris-HCl, 50 mM KCl, 1 mM DTT, pH 7.5; 25 °C, 30 min; 5% TBE native gel run on ice, GelRed
H3K18DTU nucleosome = H3K18DTU nucleosome (UniProt P0C0S8); test: as above

stoichiometry N (SIRT7 per nucleosome) (H3K36MTU nucleosome): 1 and 2
stoichiometry N (SIRT7 per nucleosome) (H3K18DTU nucleosome): 1 and 2
Substance: SIRT7 (wild type, full length) (from UniProt Q9NRC8 1-400) (enzyme)
